Results on 1 substance are retold here after patent US5858752.

The test addresses 32D c13 cells stably expressing the human Fuc-TIV (myeloid) enzyme. The test is described as follows: adhesion of 51Cr-loaded cells to plate-captured selectin/IgM fusion protein.

“human E-selectin/IgM fusion protein (from UniProt P16581)” registered a fold binding density relative to untransfected cells of 10 fold.
